The values that follow come from a protein production outcome set (Wang et al. 2014).

A short description of the series: label from the status in PepcDB records.
“MVSRRLQDSANRLFGKAATFIENGKYDRALESLKDVDKIMKKEKDPEISFHTLFLKGYTISKAGDPEGALEFYGEALKIIEPLFSGEPGKKNYQKFISNMIEEIGSSFDELNDEERAEELLGPMEKQFEKVVRTFEELVKSDPENQEYLSGFLEIIGSMGVCYQAGQLMDQAVKLFDKKIDIYEKLFELESGETDLLGDFDEDIELYGYLFRNYGHLKEAEGNYFRAAGIYRKMIEKDPENSMAEYYLSYTYSYHGSLYSGMENLEKAERYYEEAVELMDKGYKEFPEDYAYAVSLANIHESYGVAFSNRKYLEKSIANYTKAREIYRDLIINHPSEFARNKKIAMYLDDLGDRFSKIGEFEAAELCYKDKLDVFRNLHDEDPEDLNPIFEISDTYEELGDIFAEHGETGKAKAYYEKEIEIYESLLETEPDALDYKTYMAEVQATIGKLYLDEEPEKAQKYFEDALSVLENNFELEPEMDIHYSVLKKVLNNFIQLFKNQEEHEKAAEMYSKLLAVQQRMLDLNPEEREYKEDLAVTYTNLALLHSERGDIEQEARYHRLALDIHEKILEESSDYPLFLQRFVTGIYLLGSRLKLDEESRGKESGIVKEYLELAKKAENKLYAVKPEIMEDKELIAEIAEKMGISFRENEMYEEAIEEFKRSLAIREKLHEKNPENLNYLTVLEGIFHQMGITFLAQKDLEKAKETLEKAMDLNAKLLETDPEDFNYLARSSMIFETYSSVLENMGKSEEAAKYLAKAEEINAKLGYSNE”: the protein production entry is “failed”. In the case of “MKIVSIKIKNYRVFEDIKITNIPSFCVIIGANGTGKSTLFDVFGFLRDALKNNIRQALQIRGGFKEVVTRGKESEDIEIELKFRMEILATERLVTYILIIGQEGKKPVIKREILRYKRGEYGSPFHFLDFHNGQGYAIRNEESFESDEELEREEQKLESADILAIKGLGQFQRFKAANAIRSLIENWHVSDFHISDARGSKAALYAEHLSPTGDNIPIVAQYIYQEHPEIFAEILQRMKQRVPGISNVEAKEIEGGSLILKFQDQAFEDSFVDLYVSDGTIKMFAYLILLFDPKPHPLLCVEEPENQLYPTLLRELAEEFASYAHRGGQVFVSTHSPDFLNAVPLDSIFWLIKIQGVTKVEKAADHEVLRNLIAAGDLPGYLWNQGWFEGVAPLEHHHHHH” it was “failed”; in that of “MSLAQIKSLFATRLYHAPLSEHGPALDPAEFAASCYSIAEDDDAGQEWCEREGYPGYTSYASLTDLPWRFPIFADLVKSLDAHVAAFAEDLEFELDGKALRLEDIWINILPEGGVHGSHIHPHSVISGTTYVAMPEGTSALKLEDPRLPFMMAAPTRRKGAREELRTFRSVAPKVGDVLLWESWLRHEVPMNMAEEDRISVSFNYAWGEGHHHHHH”, “not failed”. For the sequence “MIHVREFQASDSDVVLHLLDLKDIINSSSFSEKVFQLSESGDFLGLVAEANQSGKHQVVGCAFLRLLETISRGLHCQIEELAIDKAWLHQGVGKSLMETATSWAKERGVGDIYVDSPYASIAVKEGIDSVFVRDEVLEVAQQYEAEKEELQESLKKQYNTTISKLEKEYEAKKQQQDETIHNLQTQLEDATQYLEEQQAEENELLNIDPSSPRNHTGPYPRGRGFWGTLCFPIRKTCGPGSCLRLPSGPASVRGSTDRSN”, the protein production result is listed as “not failed”.

Take “MEQQRSFQTETGGHLYLVPTPIGNLDDMTFRAVKTLTAVDLIAAEDTRNTQKLLNHFEITTKQISFHEHNTQERIPQLIAKLKQGMQIAQVSDAGMPSISDPGHELVNACIDAHIPVVPLPGANAGLTALIASGLAPQPFYFYGFLDRKPKDRKAEIAGLAQRPETLIFYEAPHRLKKTLQNLAAGFGDERPAVLCRELTKRYEEFLRGSLAELANWAATDTVRGEFVVLVGGNPAPTTAATTAVDLSEPIDVQVDRLIAAGEKPNDAIKEVAKLRGAKKQEIYRQYHHLDEE”: the protein production result was “not failed”. As for “MPSIISDNPKNWSEEIKNYLCRSSPERYEKMATNNAIEPYISKAISWGYAEWKNRKTLLDDIETEMLRLATLPDLSDFNDNEIYSSKKNYLSKEILENYLIKASPENFNTVFRQPGWKSHVNFLIEKGNRELERQIINGNGVENSVDTVCAELAKLMNDFENSFFDEIYGNSTPRYLLPNLFEKAIAEYKLLATIKERTRFIEAFIEIVMFDWQFSGTLDSDLFKNAYSKEVLYYYGIGARLFVLGEFKEAQEYFKKIINIEPKPIDYLMLSKTYRALNEKVETFNTIKDGLTHFPNDFLLTLALSGTLYWMGETKLANETLEPVKKDFNTMYKSEIEGAKKLAVEISEAIKCDKIYRDQKNDIYDDKYTKKAWYQYWYHYNCFRPTQHPEAYMIDYIPRYLTSIAKDATITLKGVLDFGTLCAEPLYRFAKNNPEIQCVGIDRQDLVKELNDKAYSLNNLRFEAGDIFEYLEHFALLVPNHRMLFHCRTAVLCYPNFLLKLYKKCAELGIEYICLMESNSLSRDTLTFYNYGEMPNISIARRGSLINHDYFLLLEQSGYEIVKKDFHLAPHLLEDYAALIGSNTTLVAQLKLLTQSQ”, the protein production result is “failed”. In the case of “MGHHHHHHSHMRCQESMSAVLTAEQALKLVGEMFVYHMPFNRALGLELERYEKAFAQLAFNNQPMMVGNWAQSILHGGVIASALDVAAGLVCVGSTLTRHETISEDELRQRLSRMGTIDLRVDYLRPGRGNRFTATSSLLRAGNKVAVARVELHNEDQLYIASATATYMVG” it was “failed”; in that of “MTSNERILQPFTLPNGTELKNRLLMAPMTTCTGYFDGTVTSELVEYYRARAGSIGTIIVECCFIDDYGLAFPGAIGIDNDEKIAGLAKIAEAIKAEGSKAILQIYHGGRMVDPQLIGGRQPVAPSAIAAPREGAAMPRALSGEEVEGMIAKFGDGVRRAILAGFDGVEIHGANTYLIQQFYSPNSNQRDDEWGGSRDNRARFPLAVLDITHKMARQYADDAFIIGYRFSPEEMEVPGIRFDDTMYLLEKLAARGVDYLHFSVGATLRPSIVDTSDATPLIEKYCAMRSDTLAQVPVMGVGGVVNAADAEQGLDHGYDLIAVGRACIAYPDWASRIAAGEELELFIDSTQREALHIPEPLWRFSLVEAMIRDMSMGDAKFKPGMFVETVHDDANELVINVSLENDHIADIELAASPVQTVEFTTSFEEIRERILTANTPHVDAISGATSQSEAVKKAVAKAMLKSSKALAAEEGGNDAAPKSYDVVVVGSGGAGLAAAIQAHDEGASVLIVEKMPTIGGNTIKASAGMNAAETRFQRVKGIEDSKELFYQETLKGGHNKNNPQLLRRFVENAPQAIEWLADRGIMLNDITTTGGMSIDRTHRPRDGSAVGGYLISGLVRNITKRGIDVLLDTSVEEILMRGDEVSGVRLINDEKEVIEVQTKSIVVATGGFSANSAMVVKYRPDLEGFVTTNHKGATGSGIALLERIGAGTVDMGEIQIHPTVEQQTSYLISESIRGGGAILVNQQGNRFFNEMETRDKVSAAIIALPEHYACIVFDEHVRAKNKAADEYIAKGFVTSASSPRELAEKLGMDYHAFLATLECYNGAVEKQHDEQFGRTTALRAPINEGPFHAIRIAPGVHHTMGGVTINTDGEVLNVAQQPICGAYAAGEVVGGIHGGNRIGGNAVADIIIFGTLAGHQAAKRARG”, “failed”; in that of “MDSRAAAEPIPHVSPSPFPNPSAVNQTLEERLGLDLVQVYDWDWWGTLVQSGESLLLILSTLWCILLARVVCQKLRLHGSADLCYATEFLLVILPCILLVSVAVDYSGYIGLLMLVATLWFLRTSRALERARTRVQFDLGGNRPMCLSILRALTHLITAVCILAIDFGSFYRPYRKSRQFGAKLMDTGIGLFVFTMAMVSRRTRHWSDLRRSVIYSALPLILLGLARTVSILTLSYGQDAHEYGQHLNAFFTLGFTKFLGSLVSILARKDLHLLPLGFGLLVIHQFGLSVLGISDYVMNEDVERSSFLNANREGLVSLPGFVGLFLLSIYVNRWMVAKSLLTYSEFVRKLRRLFYLVLILWTSFVISAYEIGISRVTCNLGYVIWMLAIGSTTLCASFGAIDFAINSVMPWDPNPWEDHEKGLLSGEAVVKKRGGSVVPFTISQALNKNGLTFFLVANILTGMVNIFLRPEDRSHSESVIILLVYMFLATKLVHELLKRGIRLA”, “failed”. In the case of “MRQFPPASSTVISVNFEELQAFVGRNPMLSLALVGLTIAIIVTEIARLFRGYRALKPAELTRLINSENALVIDLSPTADFEKGHIAGSRNVALAKFDPAGKLLANAKSSPVVVVCRSGNASAGAAKTLKKAGFEQVYWLEGGIAAWQMAELPLVKGRA” it was “failed”; in that of “MARRPFSSQSLVLIVIAIAINMIGGQLISMLKLPIFLDSIGTLISAVLLGPFIGMLTGLLTNLLWGLLTDPIAAAFAPVAMVIGLVAGWLARAGWFRTLPKVIVSGVVITLAVTLVAVPLRTALFGGVTGSGADLFVAWMHSMGQNLVESVAITVIGANLVDKILTAIIVWVLLRQLPLRTTRHFPAMSAVR”, “failed”. For the sequence “MTSSMLFNITTFTYLVSMLAFFAFLASRNRHLGMAGSLISYFGFFVHTAAILLRWKESYDIGHGHAPLSNLYESVVFFAWTIVLIFGIIDLKYKYRVVGAFVMPFALLGMAWAQLTLNSGIEPLVPALQSNWLLYHVVTCFLGYAAFAVACGISIMYLIKAGKEDSSQSAQAGGIISMFPPTKILDDLNYKAIMIGFPLLTLGIITGAAWANYAWGTYWSWDPKETWSLIVWFVYAAFLHARFTRGWVGKRAAILSIVGFAATIFCYLGVNLLLSGLHSYGGG”, the protein production entry is recorded as “failed”.

“AIATSALENYINRTVAVITSDGRMIVGTLKGFDQTINLILDESHERVFSSSQGVEQVVLGLYIVRGDNVAVIGEIDEETDSALDLGNIRAEPLNSVAH”: the protein production result was “not failed”. Take “MNDLLSSYLPVLIFIVVSAVIAGGLLVIPYIVAYRSPDPEKLSAYECGFNSFNDARMKFDIRFYLVSILFIIFDLEVAFLFPWAVSFGSIGMFGFWSMIIFLALLTVGFIYEWKKGALEWD”: the protein production result is reported as “failed”. As for “MGLKQTLKEIYYIVADKRLLYFSLSLGISTFAYSLLTYYFPIIMTNLDITTFTIGIIYSIISFLYVVFNIPLGAIVDKIGSKNAVTLSALMAVPLFLLMGTLNPLLFIISLVIFESVIRIVNSLGAHRFMLNYTNAGKAFGVFSLITSILAAIGIMLGGYLLQHSVSTLLFTIIAVLFGISGIIRFLELPKDENKVEVKRSLRLGFKYLKEDKKLLLYLLVSILSSGLSLETYYVTIYFVKDLLLPLTFVGVLYSSYALIMAFLPLLFSVILSKRSNFKNLSILIFSNSVIFFLVPLFTNVYILFLLFYAWTVIVAMESIVDYNVAQSVTKPEIRGTQVALISTFVRIFSVFYNAIVGLLFQITPLYSFYFTGFLGILAIFTIKFAEFIGVLK”, the protein production result is recorded as “failed”. With “MEYKLTPSYLLKENMVLACGNILFADDGFSVHVIEKLQELLTEEEKENIALVDAGAGAPQQVLTLIDSEAKTKKIIVVDIIDYGLEPGEIKILTMDDLPKPEHTKVDSHDWPLSTTMYRVFRDAPHEIDFKVVGCQKKYVSEPDVVIELSEEVQNAVDVAVDIVLSELRGKPIN”, the protein production result is listed as “not failed”.

With “MEESLKVGIAGLGTVGSSVVRILREKANSLTCQCGRSIKVVAVSARDKSRNRGIDLSDVKWFDSPVEMASSDEIDVFVELIGGESDVVYAAVKKALETGHHVVTANKALLAQHGGRLAVSAEKKGVFLHFEAAVAGGIPIIKVMRESLVSNHISRIYGILNGTCNYILTRMFTEGLSFKECLEDAQRLGYAEVDPTFDIGGNDTAHKLALLTSLAFGTAVSLDDIYVEGISNISQIDIRAADELGYRIKLLGVALKTETGIEQRVHPTMVPTSSMIAQIHGVTNALSIQSDLLGELLLSGPGAGGTATASAVIGDLADIAKARPGFQYAPVLGRPALGLAPHKKARISHHAGGYFIRLNVHDRAGVFAAVAKHMAGNHISLESIVQRSFVESQSVKTIILITHETTEVNVQQALAAIEKDGHLVAKSQFIRIEPMVLEHHHHHH”, the protein production entry was “failed”.
